Laboratory results taken from PMC8885668, “A high-performance electrochemical aptasensor based on graphene-decorated rhodium nanoparticles to detect HER2-ECD oncomarker in liquid biopsy”.

Target: HER2-ECD (recombinant human HER2/ErbB2/CD340) (human, UniProt P04626 23-652)
Experiment: electrochemical aptasensor (DPV); Rh-NPs/rGONs graphite electrode; linear 10-500 ng/mL; LOD 0.665 ng/mL (0.667 in abstract), not a Kd; DPV in 0.1 M PBS pH 7.4, 5.0 mM K4[Fe(CN)6]/K3[Fe(CN)6] (1:1), 0.1 M KCl; 50 nM aptamer immobilized; 40 min protein incubation; BSA-blocked; binding temperature not stated
Settings: protein: commercial; predicted double stem-loop; text also claims G-quadruplex

B1: anti-HER2 aptamer (ssDNA)
DNA: GGGCCGTCGAACACGAGCATGGTGCGTGGACCTAGGATGACCTGAGTACTGTCC
modifications: 5' NH2-(CH2)6, amide-coupled to MPA on electrode
B1: binds.
